Data set [1] deals with T1, Taq DNA polymerase (Thermus aquaticus, UniProt P19821). In words: Activity in PCR measured by incorporation of [3H]-dTTP into the PCR product (pH and Mg2+ effect). The data set is classed as biochemical. As to the method: Activity of Taq DNA polymerase modified with N-ethoxycarbonyl-N-2,3-dimethylmaleinimide at different pH during was measured by incorporation [^3H]-dTTP nucleotide into the PCR product.
Sets of PCR were carried out at the following pH values determined at 25° C.: 8.2, 8.3, 8.4, 8.5, 8.6, 8.7, and 8.8. The reactions were preformed in the GeneAmp® PCR System 9700 (Applied Biosystems) using 1.25 units of the modified enzymes in aliquots ([…] of the reaction buffer of the following composition: 20 mM Tris-HCl (pH values indicated above), 20 mM KCl, 5 mM (NH4)SO4, 1.5 mM MgCl2 supplemented with 0.2 mM dNTP, 0.8 MBq/ml [^3H]-dTTP, 0.5 […] of both PCR primers ([SEQ ID NO: 1] 5′-[…]-3′ and [SEQ ID NO: 2] 5′-[…]-3′), and human DNA (10 ng/50 μl).
Thermal cycling profile was the following: 95° C.—4 min; (95° C.—0.5 min, 50° C.—0.5 min, 72° C.—1 min)—30 cycles; 72° C.—7 min.
Activity of the modified DNA polymerase in PCR was determined as described in the Example 8. A set of PCR reactions was carried out in the reaction buffer (see Example 7) supplemented with the following Mg^2+ concentrations: 1 mM, 1.5 mM, 2 mM, 2.5 mM, 3 mM, 3.5 mM, 4 mM, 5 mM, 6 mM, 7 mM, and 8 mM.

Data set [2] deals with T1, Taq DNA polymerase. Put plainly: 5′-3′ exonuclease activity: cleavage of 5′-labelled oligonucleotide duplexes at 37° C. The data set is classed as biochemical. The note with it: 4 hours, with or without dNTPs, FIG. 9, part B. How it is done:
The exonuclease activity was determined using the following labeled complementary oligonucleotides: [SEQ ID NO: 3] 5′-[…]-3′ and [SEQ ID NO: 4] 5′-[…]-3′. Equal amounts (10 units) of the unmodified enzyme and the modified enzyme were incubated with the oligonucleotide duplexes for 4 hours at 37° C. in 10 μl of reaction buffer. Activity of the unmodified Taq DNA polymerase was tested in the following buffer: 75 mM Tris-HCl (pH 8.8 at 25° C.), 20 mM (NH4)SO4, 0.01% Tween20, and 2 mM MgCl2, while the buffer composition to test the modified Taq DNA polymerase was the following: 20 mM Tris-HCl (pH 8.3 at 25° C.), 20 mM KCl, 5 mM (NH4)SO4, and 2 mM MgCl2. Both reaction mixtures were tested either in the presence or in the absence of dNTPs.
Reactions were terminated by addition of 5 μl of a “stop” solution (95% (v/v) formamide and 0.01% bromophenol blue). After heating at 95° C. for 2 minutes, the samples were cooled in ice, and then they were loaded onto 15% denaturing acrylamide gel (29:1 acrylamide/bisacrylamide). Electrophoresis was performed in 89 mM Tris-borate (pH8.3 at 37° C.) supplemented with 2 mM EDTA for one hour at ˜50 V/cm. After electrophoresis, the gels were fixed in 10% acetic acid and dried. The gels were analyzed using Cyclone Storage Phosphor System and OptiQuant™ Image Analysis Software.

T1 sequence (P19821 whole entry): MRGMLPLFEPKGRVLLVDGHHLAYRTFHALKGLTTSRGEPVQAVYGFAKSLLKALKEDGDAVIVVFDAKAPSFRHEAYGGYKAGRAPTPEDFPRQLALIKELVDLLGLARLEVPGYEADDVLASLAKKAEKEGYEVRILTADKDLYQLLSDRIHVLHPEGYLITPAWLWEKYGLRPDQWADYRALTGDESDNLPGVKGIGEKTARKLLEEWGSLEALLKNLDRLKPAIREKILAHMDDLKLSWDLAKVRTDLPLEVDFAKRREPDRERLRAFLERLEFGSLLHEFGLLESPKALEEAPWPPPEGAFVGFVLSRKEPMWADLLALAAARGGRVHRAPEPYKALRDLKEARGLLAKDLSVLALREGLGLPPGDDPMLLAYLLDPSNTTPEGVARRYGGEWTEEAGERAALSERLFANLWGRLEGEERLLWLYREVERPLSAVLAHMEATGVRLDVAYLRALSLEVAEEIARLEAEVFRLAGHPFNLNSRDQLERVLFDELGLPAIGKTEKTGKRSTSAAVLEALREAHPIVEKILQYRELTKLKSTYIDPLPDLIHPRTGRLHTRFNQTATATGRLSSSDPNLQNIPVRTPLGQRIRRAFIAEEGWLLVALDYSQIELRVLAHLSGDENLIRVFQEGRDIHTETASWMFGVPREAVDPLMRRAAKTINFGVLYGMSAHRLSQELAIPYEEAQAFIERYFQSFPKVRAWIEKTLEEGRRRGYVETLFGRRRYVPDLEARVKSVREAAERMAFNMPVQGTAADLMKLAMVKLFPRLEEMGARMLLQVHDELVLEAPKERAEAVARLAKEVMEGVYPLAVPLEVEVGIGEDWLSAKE

For “Taq DNA polymerase modified with N-etoxycarbonyl-2,3-dimethylmaleinimide: Recombinant Taq DNA polymerase reversibly inactivated by reaction with N-ethoxycarbonyl-2,3-dimethylmaleinimide in aqueous solution (preferred molar ratio 1/110)”, the “activity within the 1.5-5.0 mM range of Mg2+ concentrations” value with Taq DNA polymerase [1] (1.5-5.0 mM Mg2+) is given as not below 70%. Besides, the “Activity at 70° C. (%)” value is approximately 0% with Taq DNA polymerase [1] ([Mg2+] 1 mM, incorporation of [3H]-dTTP into the PCR product); approximately 70% with Taq DNA polymerase [1] ([Mg2+] 1.5 mM); approximately 70% with Taq DNA polymerase [1] ([Mg2+] 2.0 mM); approximately 100% with Taq DNA polymerase [1] ([Mg2+] 2.5 mM); approximately 100% in the data set with Taq DNA polymerase [1] ([Mg2+] 3.0 mM); approximately 100% in the data set with Taq DNA polymerase [1] ([Mg2+] 3.5 mM). Besides, the “Activity at 70° C. (%)” value in the data set with Taq DNA polymerase [1] ([Mg2+] 4.0 mM) was approximately 90%; with Taq DNA polymerase [1] ([Mg2+] 5.0 mM) it was approximately 70%; with Taq DNA polymerase [1] ([Mg2+] 6.0 mM), approximately 30%; in the data set with Taq DNA polymerase [1] ([Mg2+] 7.0 mM) it was approximately 20%; with Taq DNA polymerase [1] ([Mg2+] 8.0 mM) it was approximately 10%; in the data set with Taq DNA polymerase [1] (ambient pH 8.2, incorporation of [3H]-dTTP into the PCR product) it was approximately 30%. Moreover, the “Activity at 70° C. (%)” value with Taq DNA polymerase [1] (ambient pH 8.3) was approximately 80%; with Taq DNA polymerase [1] (ambient pH 8.4), approximately 100%; with Taq DNA polymerase [1] (ambient pH 8.5), approximately 100%; with Taq DNA polymerase [1] (ambient pH 8.6), approximately 100%; in the data set with Taq DNA polymerase [1] (ambient pH 8.7), approximately 100%; with Taq DNA polymerase [1] (ambient pH 8.8), approximately 60%. In addition, the “activity within the pH 8.3-8.7 range” value with Taq DNA polymerase [1] (pH 8.3-8.7) was not below 80%. Further, the “5′-3′ exonuclease activity” value with Taq DNA polymerase [2] was “practically devoid of exonuclease activity”.
